# T1: human CD83 on the cell surface (KM-H2, L428, FDCP1 and BB88 cells transfected with full length human CD83) (human, UniProt Q01151 20-205)
# T1 sequence (looked up): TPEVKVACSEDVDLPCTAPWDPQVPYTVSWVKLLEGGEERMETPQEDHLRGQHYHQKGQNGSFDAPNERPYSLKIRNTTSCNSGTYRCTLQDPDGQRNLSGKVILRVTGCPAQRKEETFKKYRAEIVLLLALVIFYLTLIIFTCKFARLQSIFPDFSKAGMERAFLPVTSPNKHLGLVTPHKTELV
# T2: recombinant human CD83 extracellular domain with His tag (hCD83ECD-His) (human, UniProt Q01151 20-144)
# T2 construct: extracellular domain; Expressed in CHO cells and purified by IMAC; also called recombinant human CD83ECD-His; recombinant CD83; not shown: His tag
# T2 sequence (looked up): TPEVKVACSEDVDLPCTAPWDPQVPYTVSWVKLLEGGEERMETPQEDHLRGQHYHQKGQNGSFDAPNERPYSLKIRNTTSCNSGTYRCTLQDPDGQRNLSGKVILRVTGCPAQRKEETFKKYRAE
# Tests used:
# [1] = target: T1, human CD83 on the cell surface (KM-H2, …); experiment: cell-based or functional assay
# [2] = target: T2, recombinant human CD83 extracellular …; experiment: BiaCore SPR, Fab over immobilised hCD83ECD, 1:1 model with mass transfer
# Method: (§1) Fab fragments were generated by papain digestion with Pierce Fab MicroFab Preparation Kit, as per the manufacturer's instructions except that the kit-provided Protein A resin was replaced with MAbSelect SuRE resin (Seldon et al., J. Biomol. Tech. 22: 50-2, 2011). Fab were diluted in HBS-EP buffer consisting of 10 mM Hepes, 150 mM Sodium Chloride, 3 mM EDTA, and 0.005% Polysorbate 20 (GE Healthcare). Diluted Fab were assessed for affinity using a BiaCore3000 (GE Healthcare) instrument equipped with a CMS chip coupled with 100 Resonance Units (RU) of hCD83ECD-His protein, using the Kinetic Analysis wizard protocol. Kinetic rates were estimated using BiaEvaluation Software (GE Healthcare) using the inbuilt 1:1 binding model with mass transfer limitations.
# (§2) FIG. 7A graphically highlights these improvements of 3C12.C binding relative to 3C12.WT, as higher binding signal intensity (i.e., RU) is achieved using reduced concentrations of the VL shuffled variant during the […] Kₒₙ-dependent Association Phase. Similarly, a slower off-rate is observed for 3C12.C Fab during the Koff-dependent dissociation phase.
# [3] = target: T2, recombinant human CD83 extracellular …; experiment: BiaCore SPR, Fab over immobilised hCD83ECD
# Method: as §1
# [4] = target: T2, recombinant human CD83 extracellular …; experiment: Biacore SPR, Fab
# Method: as §1, §2
"ADCC potency in a chromium release assay, fold against 3C12.WT [1]",Kd [2],koff [2],kon [2],Kd [3],koff [3],kon [3],fold reduction in on-rate relative to 3C12 wildtype [4],Binder
> 25 fold,,,,,,,,"3C12.Kif IgG (3C12 produced in the presence of kifunensine, low-fucose IgG) (antibody, V domains shown, N-glycan without fucose (high mannose, predominantly GlcNAc2Man9), produced with 2 µg/mL kifunensine) VH: EVQLQESGGGVVQPGRSLRLSCAASGFTFSSYAMHWVRQAPGKGLEWVAVISYDGSNKYYADSVKGRFTISRDNSKNTLYLQMNSLRAEDTAMYYCARHYYYGMDVWGQGTTLTVSS VL: EIVMTQSPSLLSASLGDRVTITCRASQGIKNYFAWYQQRPGKAPKLLIYATSNLQSGVPSRFSGSGSGTEFTLTISSLQPEDFATYYCQQLGAYPLTFGGGTKLELKR"
,25 nM,0.027 s⁻¹,1.1e+06 M⁻¹ s⁻¹,,,,,"3C12.D Fab fragment (Fab, V domains shown) VH: EVQLQESGGGVVQPGRSLRLSCAASGFTFSSYAMHWVRQAPGKGLEWVAVISYDGSNKYYADSVKGRFTISRDNSKNTLYLQMNSLRAEDTAMYYCARHYYYGMDVWGQGTTLTVSS VL: EIQMTQSPSSLSASVGDRVTITCRASQGISSWLAWYQQKPGKAPKLLIYAASSLQSGVPSRFSGSGSGTEFTLTISSLQPDDFATYYCQKLSSYPYTFGGGTKVELKR"

# The remaining lines, values behind:
Binder,"ADCC potency in a chromium release assay, fold against 3C12.WT [1]",Kd [2],koff [2],kon [2],Kd [3],koff [3],kon [3],fold reduction in on-rate relative to 3C12 wildtype [4]
"3C12.C IgG (affinity matured, VL shuffled variant of 3C12, human IgG1 kappa) (antibody, V domains shown) VH: EVQLQESGGGVVQPGRSLRLSCAASGFTFSSYAMHWVRQAPGKGLEWVAVISYDGSNKYYADSVKGRFTISRDNSKNTLYLQMNSLRAEDTAMYYCARHYYYGMDVWGQGTTLTVSS VL: EIVLTQSPSSLSASVGDRVTITCRASQGIRNYLAWYQQKPGKVPKLLIYATSTLQSGVPSRFSGSRSGTEFTLTISSLHPEDFATYYCQQVDRFPYTFGQGTKVELKR",> 25 fold,,,,,,,
"3C12.WT Fab fragment (Fab, V domains shown, also called 3C12 Fab; wildtype 3C12 Fab) VH: EVQLQESGGGVVQPGRSLRLSCAASGFTFSSYAMHWVRQAPGKGLEWVAVISYDGSNKYYADSVKGRFTISRDNSKNTLYLQMNSLRAEDTAMYYCARHYYYGMDVWGQGTTLTVSS VL: EIVMTQSPSLLSASLGDRVTITCRASQGIKNYFAWYQQRPGKAPKLLIYATSNLQSGVPSRFSGSGSGTEFTLTISSLQPEDFATYYCQQLGAYPLTFGGGTKLELKR",,130 nM,0.12 s⁻¹,900000 M⁻¹ s⁻¹,130 nM,0.12 s⁻¹,950000 M⁻¹ s⁻¹,
"3C12.C Fab fragment (Fab, V domains shown) VH: EVQLQESGGGVVQPGRSLRLSCAASGFTFSSYAMHWVRQAPGKGLEWVAVISYDGSNKYYADSVKGRFTISRDNSKNTLYLQMNSLRAEDTAMYYCARHYYYGMDVWGQGTTLTVSS VL: EIVLTQSPSSLSASVGDRVTITCRASQGIRNYLAWYQQKPGKVPKLLIYATSTLQSGVPSRFSGSRSGTEFTLTISSLHPEDFATYYCQQVDRFPYTFGQGTKVELKR",,6.1 nM,0.0078 s⁻¹,1.3e+06 M⁻¹ s⁻¹,,,,
"3C12.B Fab fragment (Fab, V domains shown) VH: EVQLQESGGGVVQPGRSLRLSCAASGFTFSSYAMHWVRQAPGKGLEWVAVISYDGSNKYYADSVKGRFTISRDNSKNTLYLQMNSLRAEDTAMYYCARHYYYGMDVWGQGTTLTVSS VL: EVVMTQSPSFLSASIGDRVSITCRTSQGISNHLAWYQQKPGKAPKLLIYAASSLQSGVPSRFSGSGSGTDFTLTISSLQPEDIATYYCQQVNSYPYTFGQGTRLELKR",,43 nM,0.014 s⁻¹,320000 M⁻¹ s⁻¹,,,,~3 fold
"3C12.E Fab fragment (Fab, V domains shown) VH: EVQLQESGGGVVQPGRSLRLSCAASGFTFSSYAMHWVRQAPGKGLEWVAVISYDGSNKYYADSVKGRFTISRDNSKNTLYLQMNSLRAEDTAMYYCARHYYYGMDVWGQGTTLTVSS VL: EIVLTQSPSSLSASVGDRVTITCRASQGISNYLAWYQQKPGKVPKLLIYAASTLQSGVPSRFSGSGSGTHFTLTISSLQPEDVATYYCQKCNSAPYTFGQGTKVELKR",,42 nM,0.05 s⁻¹,1.2e+06 M⁻¹ s⁻¹,,,,
